Data: patent US20230416785A1, “NUCLEASE AND APPLICATION THEREOF” (CRISP-HR Therapeutics, Inc., priority 2020, published 2023)

Test system: A549 cells
Experiment: Cellular toxicity / viability of transfected A549 cells (resazurin assay)
Assay type: cell-based
Experimental: A549 cells were chosen as they are both facile to grow and transfect, cost effective in terms of media and other reagents, and importantly have retained a functional p53 gene.
Cells were then allowed to recover for one additional day, after which viability was cells were incubated with resazurin (Millipore Sigma) for 4 hours, after which fluorescence was quantified by a plate reader (Perkin Elmer).
Unless otherwise noted, adherent cells (A549 or H1299) were seeded in 96 well plates and grown in either 50/50 F-12/DMEM or RPMI-1640 respectively, supplemented with 5% FBS and grown to roughly 70% confluency. Cells were then transfected with either Cal-Phos as described in Chen 2012 or Lipofectamine 3000 (Thermofisher). Fresh media was exchanged the next day and cellular viability was quantified on day 2.
(§1) 20 μL of 0.15 mg/mL Resazurin solution was added to cells either plated in 96 well plates for all cell lines, which were then incubated for ˜4 hours at 37° C. Cellular toxicity was quantified using a Tecan SpectraFlour Plus plate reader (Tecan) using a 535/595 filter set. Raw data was then normalized to the mean of the untransfected controls and plotted as described.
as §1, with “described. […] Stats: All two-sided students T-test with unequal variance.” for “described.”

Substance: Cas9-HR 8: hExo1(1-352)-Cas9 fusion of FIG. 1A; E. coli codon optimized vectors SEQ ID NO: 68 and 69
- cellular viability relative to Cas9 (Cadherin1 G1 or G2, Day 2 post transfection): significant increases in cellular viability
- cellular toxicity compared to Cas9 (H2B-G4 guide, lipofectamine 3000): significant reduction in cellular toxicity
- cellular toxicity (Int-G2 and Int-G3, CalPhos): dramatic reduction in cellular toxicity
- cellular viability relative to Cas9 (SHS-231 G1, G2 or G3, Day 2 post transfection): significant increases in cellular viability
